Laboratory results published in paper doi:10.1101/2022.04.18.488654, “The DNA replication initiation protein DnaD is recruited to a specific strand of the Bacillus subtilis chromosome origin” (bioRxiv, 2022).
Changes are numbered by the printed parent chain.

T1: DnaD L22A (Bacillus subtilis 168CA, UniProt P39787 1-232, L22A)
T1 sequence: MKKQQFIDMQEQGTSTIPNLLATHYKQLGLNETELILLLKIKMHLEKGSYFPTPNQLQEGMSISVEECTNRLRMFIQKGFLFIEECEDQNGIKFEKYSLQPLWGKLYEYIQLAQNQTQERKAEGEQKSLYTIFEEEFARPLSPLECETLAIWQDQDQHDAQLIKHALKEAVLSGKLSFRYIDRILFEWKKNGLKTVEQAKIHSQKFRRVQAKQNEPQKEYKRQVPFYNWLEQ

T2: DnaD F6A (Bacillus subtilis 168CA, UniProt P39787 1-232, F6A)
T2 sequence: T1 sequence with F6A, A22L

B1: DnaD (wild-type, Bacillus subtilis DNA replication initiation protein) (natural protein, UniProt P39787 1-232, looked up)
chain: T1 sequence with A22L
notes: DnaD, Bacillus subtilis 168CA, amplified from genomic DNA; full-length protein; Tetramer by SEC-MALS and SEC; in the cryo-EM map only a dimer was seen; also called wild-type DnaD; full length DnaD; source: E. coli BL21(DE3)-pLysS, purified (HisTrap, SUMO protease digestion, reverse HisTrap)
B2: DnaD^1-224 (truncation lacking the DnaB interaction region, the last eight residues) (domain or fragment, Bacillus subtilis, UniProt P39787 1-224, looked up)
chain: MKKQQFIDMQEQGTSTIPNLLLTHYKQLGLNETELILLLKIKMHLEKGSYFPTPNQLQEGMSISVEECTNRLRMFIQKGFLFIEECEDQNGIKFEKYSLQPLWGKLYEYIQLAQNQTQERKAEGEQKSLYTIFEEEFARPLSPLECETLAIWQDQDQHDAQLIKHALKEAVLSGKLSFRYIDRILFEWKKNGLKTVEQAKIHSQKFRRVQAKQNEPQKEYKRQV
notes: DnaD, Bacillus subtilis 168CA, residues 1-224 (lacks the last eight amino acid residues of the C-terminal tail); also called C-terminal truncation; source: E. coli BL21(DE3)-pLysS, purified (HisTrap, SUMO protease digestion, reverse HisTrap)
B3: DnaD^1-205 (truncation lacking the entire C-terminal tail) (domain or fragment, Bacillus subtilis, UniProt P39787 1-205, looked up)
chain: MKKQQFIDMQEQGTSTIPNLLLTHYKQLGLNETELILLLKIKMHLEKGSYFPTPNQLQEGMSISVEECTNRLRMFIQKGFLFIEECEDQNGIKFEKYSLQPLWGKLYEYIQLAQNQTQERKAEGEQKSLYTIFEEEFARPLSPLECETLAIWQDQDQHDAQLIKHALKEAVLSGKLSFRYIDRILFEWKKNGLKTVEQAKIHSQK
notes: DnaD, Bacillus subtilis 168CA, residues 1-205 (entire C-terminal tail removed); also called truncation of the DnaD^CTT; source: E. coli BL21(DE3)-pLysS, purified (HisTrap, SUMO protease digestion, reverse HisTrap)
B4: polyT40 (oCW837) (ssDNA)
DNA: TTTTTTTTTTTTTTTTTTTTTTTTTTTTTTTTTTTTTTTT
B5: polyT18 (oCW1088) (ssDNA)
DNA: TTTTTTTTTTTTTTTTTT

How the values were obtained:
[1] = target: the molecule itself; assay: SEC-MALS; purified DnaD variants; 20°C; 40 mM Tris-HCl pH 8, 500 mM NaCl, 1 mM EDTA, 20 mM imidazole, 2.5% v/v glycerol
[2] = target: the molecule itself; assay: SEC; Superdex 200 Increase 10/300GL, 4°C; 40 mM Tris-HCl pH 8, 500 mM NaCl, 1 mM EDTA, 20 mM imidazole
DnaD L22A = target: T1, DnaD L22A; assay: fluorescence polarisation; FP: 10 mM HEPES-KOH pH 7.5, 1 mM Mg acetate, 100 mM K glutamate, 20 C, 10 min, 1.875 nM DNA; crosslinking buffer not in material; details: protein: recombinant; tags: His14-SUMO tag cleaved; label: fluorescein
DnaD F6A = target: T2, DnaD F6A; assay: fluorescence polarisation; similar to WT; FP: 10 mM HEPES-KOH pH 7.5, 1 mM Mg acetate, 100 mM K glutamate, 20 C, 10 min, 1.875 nM DNA; crosslinking buffer not in material; details: protein: recombinant; tags: His14-SUMO tag cleaved; chain copies: 2; label: fluorescein

Row | Binder | stoichiometry N [1] | binding result (DnaD L22A) | other results
1 | B1 | 4 | – | –
2 | B2 | – | – | stoichiometry N [2]: 4
3 | B3 | 4 | – | –
4 | B4 | – | no binding | –
5 | B5 | – | no binding | binding result (DnaD F6A): binds
